In the nanobody polyreactivity screen of Harvey et al. (2022):

Test: yeast display, Sf9 membrane polyspecificity reagent, FACS + sequencing; frameworks hold sequencing errors
Method in brief: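 Genes from sorted yeast were amplified by colony PCR, read by MiSeq 2 × 250 sequencing and filtered on CDR length. These cells carried a synthetic nanobody library in Saccharomyces cerevisiae BJ5465 and were sorted by FACS into low and high (top ~1%) gates on anti-HA and streptavidin fluorescence. Polyreactivity is labelled according to the gate of origin.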

Row | Sequence | polyreactivity (PSR sort gate)
1 | QVQLVESGGGLDQAGGSLRLSCAASGRIFSFNAMGWYRQAPGKERELVAAISWSTGSTFYADSVKGRFTISRDNAKNTVYLQMNSLKPEDTAVYYCAREYYYRRGFFLRGYWGQGTQVTVSS | high polyreactivity
2 | QVQLVESGGGLDQAGGSLRLSCAASGRIFSYYAMGWYRQAPGKERELVAVISRRGDNTYYADSVKGRFTISRDNAKKTVYFQMNSLKPEDTAVYYCAARFGYLTFYSSGYYWGQGTQVTVSS | high polyreactivity
3 | QVQLVESGGGLDQAGGSLRLSCAASGRIFVYNAMGWSRQAPGKARELVATITFSSSNTYYADSVKGRFTISRENAKNTVYLQMNSLKPEDTAVYYCYRDYVYARDYGNFDYWGQGTQVTVSS | low polyreactivity
4 | QVQLVESGGGLDQAGGSLRLSCAASGRTFARYDMGWYRQATGKERELVAGINGDGGSTNYADSVKGRFTISRDNSKNTVYLQMNSLKPEDTAVYYCNVDQEDRKLHVSIKQLSDHWGQGTQVTVSS | low polyreactivity
5 | QVQLVESGGGLDQAGGSLRLSCAASGRTFGRYAMGWYRQAPGKERELVAAITRSGSSTYYADSVKGRFTISRDNAKNTVYLQMNSLKPEDTAVYYCAAGPRPRPSDYWGQGTQVTVSS | high polyreactivity
6 | QVQLVESGGGLDQAGGSLRLSCAASGRTFGYNAMGWYRQAPGKERELVAAINWSGASTYYADSVKGRFTISRDNAKNTVYLQMNSLKPEDTAVYYCAARRKRVSFFPEYDYWGQGTQVTVSS | low polyreactivity
7 | QVQLVESGGGLDQAGGSLRLSCAASGRTFGYYTMGWYRQAPWKERELVARINYIGSSTYYADSVKGRFTISRDNAKNTVYLQLNSLKREDTAVYYCNADTARGRSGVRRYYWGQGTQVTVSS | high polyreactivity
8 | QVQLVESGGGLDQAGGSLRLSCAASGRTFYVYGMGWSRQAPGKERELVAAIRSSGGSTYADSVKGRFTISRDNAKKTVYLQMNSLKPEDTAVDYCAADRRYAESGYYWGQGTQVTVSS | high polyreactivity
9 | QVQLVESGGGLDQAGGSLRLSCAASGRTNAPYAMGWYRPAPGKERELVAAISGGGSTNYADSVKGRFTISRDNAKNSVYLQMNSLKPEDTAVYSCAADQYHGVGINFRSDYDYWGQGTQVTVSS | low polyreactivity
10 | QVQLVESGGGLDQAGGSLRLSCAASGRTSKTYAMGWYRQAPGKERELVATIDRSGDGTYYADSVKGRFTISRDNAKNTVYLQMNSLKPEDTAVYYCNAVTSSFYNRDSDYWGQGTQVSVSS | high polyreactivity
11 | QVQLVESGGGLDQAGGSLRLSCAASGRTYYLYAMGWYRQAPGKERELVAAITFNGGSTYYADSVKGRFTISRDNGKNTVYLQMNSLKPEDTAVDYCAGRLSKRSGYYYWGQGTQVTVSS | high polyreactivity
12 | QVQLVESGGGLDQAGGSLRLSCAASGSIFDDYAMGWYRQAPGKERELVAAISWSGGRTYYADSVKGRFTISRDNAKNTVYLQMNSLKPEDTAVYYCAATTGVRSRRYYYWGQGTQVTVSS | low polyreactivity
13 | QVQLVESGGGLDQAGGSLRLSCAASGSIFDRYAKGWYRQAPGTERELVASITWRATSTYYADSVKGRFTISRDNAKNTVYLKMNRLKPEETAVYYCAAAIAFGYRGTVAKYGYWGQGTQVTVSS | low polyreactivity
14 | QVQLVESGGGLDQAGGSLRLSCAASGSIFETYVMGWYRQAPGKERELVAAINSGGSTYYADSVKGRFTISRDNAKNTVYLQMNSLKPEDTAVYYFAADSPYGYYEGDYWGQGTQVTVSS | low polyreactivity
15 | QVQLVESGGGLDQAGGSLRLSCAASGSIFTYNVMGWYRQAPGKERELVAAISWDGDSTYYADSVKGRFTISRDNAMKTVYLQMNSLKAEDTAVYYCAADVHEKFQYDYWGQGNQVTVSS | high polyreactivity
16 | QVQLVESGGGLDQAGGSLRLSCAASGSIFYPYAMGWYRQAPGKERELVASNSSGGSTYYADSVKGRFTISRDNAKNTVYLQMNSLKPEDTAVYYCARQDYKRFYRYRFGNLYDSWGQGTQVTVSS | high polyreactivity
17 | QVQLVESGGGLDQAGGSLRLSCAASGSIIYWYAKGWYRQAPGKERELVADISRGGITNYADSVKGRFTISRDNEKNTVYLQMNSLKPEDTAFYYCAKTHYGVQRLDSWGQGTQVTVSS | low polyreactivity
18 | QVQLVESGGGLDQAGGSLRLSCAASGSISLNAMGWYRQGPGKEREFVAVITWRVGDTYYADSVKGRITISRDNAKNTVYLQLNSRKPEDSAVYYCAADDLYYQGIYRGSEFDYWGQGTQVTVSS | low polyreactivity
19 | QVQLVESGGGLDQAGGSLRLSCAASGSTFLTNAMGGYRQAPGKEMELVAVISLISGPTYYADSVKVRFTISRDNAKNTVYLQMNRLKPEDTAVYYSATDPYWNSPYVKYDYWGQGTQVTVSS | high polyreactivity
20 | QVQLVESGGGLDQAGGSLRLSCAASGSTFRNNAMGCYRQAPGKEREFVAAISRRGGSTYADSVKGRFTISRDNAKITVYLQMNSLKPEDTAVYFCAVRPSRILTGGRMDYWGQGTQVTVSS | high polyreactivity
21 | QVQLVESGGGLDQAGGSLRLSCAASGSTFRSYAMGWYRQAPGKERELVAVISSGDSTYYADSVKGRFTISRDNAKNTVYLQMNSLKQEDTAVYYCAADSYVLGRWYGYWGQGTQVTVSS | low polyreactivity
22 | QVQLVESGGGLDQAGGSLRLSCAASGSTFWVNTMGWYRQAPGKERELVAGITSNGGSTSYADSVKGRFTISRDNAKNSVYLQMNSLKREDTAVYYCNADTYPDYWAYLYDYWGQGTQVTVSS | low polyreactivity

Row | Sequence | polyreactivity (PSR sort gate)
23 | QVQLVESGGGLDQAGGSLRLSCAASGSTFYAYTMGWYRQAPGKERELVARISGRGGSTYYADSVKGRFTISRDNAKNTVFLQMYSLKPEDTAVYFCASRVYGSYRGIQYGYWGQGTQETVSS | high polyreactivity
24 | QVQLVESGGGLDQAGGSLRLSCAASGSTFYLYAMGWYRQAPGKERELVAAISSGGRTNYADSVKGRFTISRDNAKNTVYLQMNSLKPEDTAVYYCAARIQWPTWSLYYYWGQGTQVTVSS | high polyreactivity
25 | QVQLVESGGGLDQAGGSLRLSCAASGSTFYYYAMGWYRQAPGKERELVATISSGSSTNYADSVKGRFTISRDNAKNTVYLQMNCLKPEDTAVYYCAADRWYITLSIDATISYDYWGQGTQVTVSS | low polyreactivity
26 | QVQLVESGGGLDQAGGSLRLSCAASGSTIHRNAMGWYRQAPGKERELVAAITSGGSTNYADSVKGRFTISRDNAKNTVYLQMNSLKPEDTAVYYCDKDYRHYNRGWYDYWGQGTQVTVSS | low polyreactivity
27 | QVQLVESGGGLDQAGGSLRLSCAASGSTLFPYAMGWYRQAPGKERELVAAISSRGGRTNYADSVKGRFTISRDNAKNTDYLQLYSLKPEDTAVYYCAAGDDYWGQGTEVTVSS | high polyreactivity
28 | QVQLVESGGGLDQAGGSLRLSCAASGSTLSGNAMGWYRHAPGKERELVAAITSSGGRTYYADSVKGRFTISRDNAKNTVYLQMNSLKPEDTAVYYCAARSRLGRYTYDYCGQGTQVTVSS | high polyreactivity
29 | QVQLVESGGGLDQAGGSLRLSCAASGYTFVGNAMGWYRQAPGKERELVAAISRSGGRTYYADSVKGRFTISRDNAKYTVYLQMNSLKPEDTAVYYCAKQPGSGPYYWGQGTQVTVSS | high polyreactivity
30 | QVQLVESGGGLDQAGGSLRLSCAASVNIFIYNTMGWYRQAPGKERELVAAITSDDSTKYADSVKGRFTISRDNAKNPVYLQMNTLKPEDTAVYYCAKRYYHPYWIDYDYWGQGTHVTVSS | low polyreactivity
31 | QVQLVESGGGLDQAGGSLRLSCADSGITFSYYAMRWYRQAPGKERELVAAISSGGSKNYADSVKGRFTISRDNGKNTVYFQMNSLKPEDTEVYYCAATQQFWWAYRYDYWGQGTQVTVSS | low polyreactivity
32 | QVQLVESGGGLDQAGGSLRLSCADSGSTFGLYAMGWYRQAPGKETELVAVISWRGGSTYYADSVKGRFTISRDNAKITVYFQMNSLKPEDTAVYYCAAYCLYPYVRYDYWGLGTQVTVSS | low polyreactivity
33 | QVQLVESGGGLDQAGGSLRLSSAASGSIVDSNAMGWYRQAPGKASEMVASITSSGGSTYYADSVKGRFTISRDNAKNTVYLQMNSVKPEDTAVYYCAPKQAQSRYRLWSTSGYWGQGTQVTVSS | high polyreactivity
34 | QVQLVESGGGLDQAGGSLRLSSAAYGRIFRRYAMGWYRQSHGKERELVAAITSGGGSTYYADSVKGRFTISRDNAKNTVYLQMNSLKPEETAVYYCNKSSLEFVKGKYGYWGQGTQVTVSS | low polyreactivity
35 | QVQLVESGGGLDQAGGSLRLTCAASGFNFSYYVMGWYRQAPGKERELVAAITKSGGSTYYADSVKGRFTIARDNAKNTVYLQMYSLKPEDTAVYFLAAVRGYRCYDYWGQGTQVTVSS | high polyreactivity
36 | QVQLVESGGGLDQAGGSLRLTCAASGGTFVSNAMRWSRQAPGKERELVAAISSSTGSTYYADSVKGRFTISRDNAKKTVYLQMISLKPEDTAVYYCAADSWWDYDSWGQGPQVTVSS | low polyreactivity
37 | QVQLVESGGGLDQAGGSLRLTCAASGITFTQYAMGWYRQAPGKEREFVAGITFSGSSTYYADSVKGRFTISRDNAKNTVYLQMNSLKPEDTAVYYCAAESWYKYIYGYPRLFDYWGQATQVTVSS | low polyreactivity
38 | QVQLVESGGGLDQARGSLRLSCAASGLTFHRYAMGWYRQANGKERELVAAINYSGGRTYYADSVKGRFTISRDNAKNTVYLQMNSLKPEDTAVYYCNAVRYQKIFDYWGQGTQVTVSS | high polyreactivity
39 | QVQLVESGGGLDQARGSLRLSCAASGRTFVLNAMGWYRQAPGKERELVAAITLGGGSTYADSVKGRFTISRANAKNTVYLQMNSLKPEDTAVYYCAADFHYPYFEYWGQGTQVTVSS | low polyreactivity
40 | QVQLVESGGGLDQEGGSLRLSCAASGRIFARNAMGWYRQAPGKERELVAAIRNSDGSTYYADSVKGRFTISRDNAKNTVYLQMNSLKPEDTAVYYCAARSGSYRKYGYWGQGTQVTLSS | high polyreactivity
41 | QVQLVESGGGLDQPGGSLRLSCAASGRIFRTYAMGWYRQAPGKQRELVAAINSVHRTYYADSVKGRFTITRDNAKNTVNLQMYCQKPEDSAVYYCNARYVLKVSQYGYWGQGTQVTVSS | high polyreactivity
42 | QVQLVESGGGLDQSGGSLSLSCAASGSNFRLNAMGWSRQAPGKETELVAAISYRGGSTNYADSVKGRFTISRDNAKNTVYLQMNILKPEDTAVYYCAANIYRSSGQCMDYWGQGTEVTVSS | low polyreactivity
43 | QVQLVESGGGLEQAGGSLRISCAASGITFRWYAMGWYRQAPGKERELVAAISERGGSTYYADSVKGRFTISRDNAKNTVYLQMNSLKPEDTAVYYCAADSQHWQRWHGYWGQGTEVTVSS | high polyreactivity
